The source of these data is US20200223921A1 (TRUEBINDING, published 2020).

The labels stand for the following.
B1: mouse TIM-3 Fc protein (R&D systems) (Fc fusion, UniProt Q8VIM0 20-191, looked up)
chain: RSLENAYVFEVGKNAYLPCSYTLSTPGALVPMCWGKGFCPWSQCTNELLRTDERNVTYQKSSRYQLKGDLNKGDVSLIIKNVTLDDHGTYCCRIQFPGLMNDKKLELKLDIKAAKVTPAQTAHGDSTTASPRTLTTERNGSETQTLVTLHNNNGTKISTWADEIKDSGETIR
notes: Bought; also called mTIM-3 Fc; mTIM-3-Fc; not shown: Fc

Where only a bound is given, the exact number is not on record here.

The target of assay [1] is mouse Gal3 (endogenous, on B16F10 tumor cells and RAW264.7 macrophages) (mouse) (UniProt P16110). Nature of the assay: flow cytometry on B16F10 cells, rat anti mouse Gal3 PE against control rat IgG PE.
Assay [2] concerns the target T1, Flag-tagged human Gal3 protein stably expressed on A20 cells (A20 Gal3 cells) (human, UniProt P17931 2-250).
T1 construct: Mouse B lymphoma A20 cells transfected with a construct encoding Flag-tagged human Gal3; also called A20 cells overexpressing human Gal3; hGal3; not shown: Flag tag
Nature of the assay: flow cytometry: mTIM-3 Fc on live A20 Gal3 cells, anti-hFc APC detection (FIG. 4B, row 2). Here is the method: Flow cytometry analysis was performed to evaluate the binding between TIM-3 and Gal3 using A20 cells. A20 Gal3 cells were incubated with 10% FBS HBSS solution that contains with or without mouse TIM-3 Fc on ice for 20 minutes. There are five experimental groups: in group 1, A20 Gal3 cells were incubated without mTIM-3 Fc protein as control; in group 2, A20 Gal3 cells were incubated with mTIM-3 Fc protein; in groups 3, 4, 5, in addition to mTIM-3 Fc protein, anti-mouse TIM-3 polyclonal antibody (R&D System, Minneapolis, Minn.) (group 3), monoclonal antibody RMT3-23 (Bio X cell, West Lebanon, N.H.) (group 4), monoclonal antibody 215015 (R&D Systems) (group 5), were also added to test if these antibodies could block Gal3 and Tim3 binding. For blocking, cells were incubated with 10% FBS HBSS containing mentioned antibodies, then were added with 10% FBS HBSS containing mTIM-3 Fc for 20 min. Samples were centrifuged and pellet were added 10% FBS HBSS containing APC conjugated anti-hFc antibodies (Jackson ImmunoResearch, West Grove, Pa.) for 20 min. After spinning, live/dead cells were stained with Violet dead cell stain kit (Life Technologies). Stained cells were subjected to flow analysis.

Assay [3] has as its target human Gal9 protein (R&D systems) (human) (UniProt O00182). The assay is described as follows: ELISA: plate coated with hGal9, mTIM-3 Fc with or without 25 mM alpha-lactose.
In assay [4] the target is B1. The assay is described as follows: ELISA: plate coated with mGal3 at 10 ug/ml, mTIM-3 Fc (FIGS. 5A-5C). Here is the method:
In FIG. 5A, different anti Gal3 antibodies, i.e. mGal3 polyclonal antibody (R&D sytems), mAb IMT001, mAb M3/38 (Thermofisher Scientific) (FIG. 5A), were added to well that has been coated with Gal3. The antibodies were incubated for 10 minutes and mouse TIM-3 Fc were then added to the plates and incubated for an additional one-hour incubation. Plates were then washed for three times and followed by incubation with anti human-IgG-HRP (Jackson ImmunoResearch) for 1 h at room temperature. The color was developed with TMB subtract (GeneTex, Irvine, Calif.) after three time washes with TBST and the reaction was terminated with 1N HCl. The optical density (OD) was read at 450 nm. The results were expressed as the average OD of duplicates±SD.
In FIG. 5B, mouse Gal3 protein (BioLegend) in PBS (groups 1 and 2) or PS (Sigma-Aldrich, St. Louis, Mo.) in ethanol (groups 3 and 4) were coated on the plates and incubated at 4° C. overnight. Anti mTIM-3 mouse antibodies, mAb RMT3-23 (Bio X cell), was added to the coated plates for groups 2 and 4 only. Secondary anti human-IgG-HRP antibody and substrates were added as described above to detect the binding of the mTIM-3 to mGal3 or PS. […]
A general note: ELISA stands for enzyme-linked immunosorbent assay.

T1 sequence (P17931 2-250): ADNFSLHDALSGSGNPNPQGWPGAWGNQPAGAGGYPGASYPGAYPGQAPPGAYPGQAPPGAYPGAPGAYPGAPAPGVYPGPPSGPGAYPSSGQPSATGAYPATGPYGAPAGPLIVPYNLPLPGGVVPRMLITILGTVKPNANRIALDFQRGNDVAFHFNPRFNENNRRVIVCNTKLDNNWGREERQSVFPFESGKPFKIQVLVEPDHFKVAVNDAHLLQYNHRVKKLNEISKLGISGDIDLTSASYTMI
Sequence of human Gal9 protein (R&D systems) (human) (O00182 other isoform, or with tags, fused parts or gaps limits assumed): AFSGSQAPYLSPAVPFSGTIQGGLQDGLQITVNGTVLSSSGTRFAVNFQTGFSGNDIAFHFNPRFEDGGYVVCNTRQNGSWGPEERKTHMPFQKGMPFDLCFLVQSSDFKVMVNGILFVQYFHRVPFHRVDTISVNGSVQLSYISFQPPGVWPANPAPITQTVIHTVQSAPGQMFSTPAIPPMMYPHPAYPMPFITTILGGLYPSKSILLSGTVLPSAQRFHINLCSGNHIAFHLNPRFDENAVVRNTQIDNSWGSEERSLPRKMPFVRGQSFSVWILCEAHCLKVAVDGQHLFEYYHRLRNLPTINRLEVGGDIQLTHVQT

Molecule “rat anti mouse Gal3 PE antibody (Thermo Fisher Scientific)” returned a fold of MFI over isotype control antibody in assay [1] of 10 fold.

Turning to B1, the binding result in assay [2] is “binds”. Also, the fold reduction in ELISA signal with 25 mM alpha-lactose against no lactose in assay [3] was > 10 fold.

B2: mouse Gal3 protein (BioLegend) (ligand)
chain: ADSFSLNDALAGSGNPNPQGYPGAWGNQPGAGGYPGAAYPGAYPGQAPPGAYPGQAPPGAYPGQAPPSAYPGPTAPGAYPGPTAPGAYPGSTAPGAFPGQPGAPGAYPSAPGGYPAAGPYGVPAGPLTVPYDLPLPGGVMPRMLITIMGTVKPNANRIVLDFRRGNDVAFHFNPRFNENNRRVIVCNTKQDNNWGKEERQSAFPFESGKPFKIQVLVEADHFKVAVNDAHLLQYNHRMKNLREISQLGISGDITLTSANHAMI
notes: Bought recombinant protein coated on ELISA plates; also called mGal3
On to B2, for which the binding result in assay [4] is given as “binds”.
